Molecular target: recombinant human VEGF (R&D Systems, 293-VE-010) (human) (UniProt P15692)
Experiment: Octet HTX biosensor (BLI); positive control antibody at 10 ug/mL in 1x kinetics buffer; recombinant human VEGF in 1:2 series, 200 nM to 3.125 nM

UniProt P15692, sequence (P15692 other isoform, or with tags, fused parts or gaps limits assumed): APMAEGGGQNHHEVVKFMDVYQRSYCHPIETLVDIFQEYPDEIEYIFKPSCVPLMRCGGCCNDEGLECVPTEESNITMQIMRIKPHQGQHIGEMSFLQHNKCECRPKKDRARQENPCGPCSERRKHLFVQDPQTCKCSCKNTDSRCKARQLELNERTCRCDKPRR

mouse anti-human VEGF monoclonal antibody (anti-hVEGF MmAb; R&D Systems, MAB293-100)
Kd: 0.229 nM | koff: 7.77e-05 s⁻¹ | kon: 340000 M⁻¹ s⁻¹

Reference: patent US20260176346A1
